Experiments:
[1] = biological target: Cyno TfR apical permuted N-term Avi-His (cynomolgus); experiment: SPR (Carterra LSA), 2+2 captured
[2] = biological target: huTfR Apical Domain-Avi-His (human); experiment: SPR (Carterra LSA), 2+2 captured
huTfR Apical Domain-Avi-His (human), sequence (chain, as listed by the source limits assumed): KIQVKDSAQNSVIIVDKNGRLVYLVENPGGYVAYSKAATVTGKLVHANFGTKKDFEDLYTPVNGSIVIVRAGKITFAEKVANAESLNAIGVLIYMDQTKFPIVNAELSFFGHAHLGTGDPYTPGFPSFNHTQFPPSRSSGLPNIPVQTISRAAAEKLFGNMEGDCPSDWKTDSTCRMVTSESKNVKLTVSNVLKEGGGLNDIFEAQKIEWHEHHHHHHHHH

Cyno TfR apical permuted N-term Avi-His (cynomolgus), sequence (chain, as listed by the source limits assumed): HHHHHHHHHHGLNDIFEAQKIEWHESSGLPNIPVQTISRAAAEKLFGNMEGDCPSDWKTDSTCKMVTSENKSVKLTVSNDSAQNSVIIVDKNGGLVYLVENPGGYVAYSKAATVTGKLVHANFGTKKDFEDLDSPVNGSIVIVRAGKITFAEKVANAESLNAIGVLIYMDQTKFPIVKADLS

| Binder | Kd [1] | Kd [2] |
| --- | --- | --- |
| TFR.15.WH8.1.42A.3x(G4S) 2+2 anti-TfR bispecific antibody (bispecific antibody, part only; not given: isotype IgG backbone and linker, not shown: another chain or arm of the molecule; a dimerising Fc or GST; large carriers; small tags and cut ends) scFv: QVQLVQSGAEVKKPGASVKVSCKASGYTFTSYYMHWVRQAPGQGLEWMGNIYPGSGSSNYAQKFQGRVTMTRDTSTSTVYMELSSLRSEDTAVYYCTRSSYYGNFDTMDNWGQGTTVTVSSGGGGSGGGGSGGGGSEIVLTQSPATLSLSPGERATLSCRASSSIRAMNWYQQKPGQAPRRLIYDTSNRATGIPARFSGSGSGTDFTLTISSLEPEDFAVYYCHQRSSYPWTFGGGTKVEIK | 74 nM |  |
| TFR.15.WH8.1 2+2 anti-TfR bispecific antibody (bispecific antibody, part only; not given: isotype IgG backbone and linker, not shown: another chain or arm of the molecule; a dimerising Fc or GST; large carriers; small tags and cut ends) scFv: QVQLVQSGAEVKKPGASVKVSCKASGYTFTSYYMHWVRQAPGQGLEWMGNIYPGSGSSNYAQKFQGRVTMTRDTSTSTVYMELSSLRSEDTAVYYCTRSSYYGNFDTMDNWGQGTTVTVSSGGSEGKSSGSGSESKSTGGSEIVLTQSPATLSLSPGERATLSCRASSSIRYMNWYQQKPGQAPRRLIYDTSNRATGIPARFSGSGSGTDFTLTISSLEPEDFAVYYCHQRSSYPWTFGGGTKVEIK | 17 nM | 28 nM |
| TFR.15.WH8.1.24N 2+2 anti-TfR bispecific antibody (bispecific antibody, part only; not given: isotype IgG backbone and linker, not shown: another chain or arm of the molecule; a dimerising Fc or GST; large carriers; small tags and cut ends) scFv: QVQLVQSGAEVKKPGASVKVSCKASGYTFTSYYMHWVRQAPGQGLEWMGNIYPGSGSSNYAQKFQGRVTMTRDTSTSTVYMELSSLRSEDTAVYYCTRSNYYGNFDTMDNWGQGTTVTVSSGGSEGKSSGSGSESKSTGGSEIVLTQSPATLSLSPGERATLSCRASSSIRYMNWYQQKPGQAPRRLIYDTSNRATGIPARFSGSGSGTDFTLTISSLEPEDFAVYYCHQRSSYPWTFGGGTKVEIK | 47 nM | 140 nM |
| TFR.15.WH8.1.42A 2+2 anti-TfR bispecific antibody (bispecific antibody, part only; not given: isotype IgG backbone and linker, not shown: another chain or arm of the molecule; a dimerising Fc or GST; large carriers; small tags and cut ends) scFv: QVQLVQSGAEVKKPGASVKVSCKASGYTFTSYYMHWVRQAPGQGLEWMGNIYPGSGSSNYAQKFQGRVTMTRDTSTSTVYMELSSLRSEDTAVYYCTRSSYYGNFDTMDNWGQGTTVTVSSGGSEGKSSGSGSESKSTGGSEIVLTQSPATLSLSPGERATLSCRASSSIRAMNWYQQKPGQAPRRLIYDTSNRATGIPARFSGSGSGTDFTLTISSLEPEDFAVYYCHQRSSYPWTFGGGTKVEIK | 88 nM | 160 nM |
| TFR.15.WH8.1.26H 2+2 anti-TfR bispecific antibody (bispecific antibody, part only; not given: isotype IgG backbone and linker, not shown: another chain or arm of the molecule; a dimerising Fc or GST; large carriers; small tags and cut ends) scFv: QVQLVQSGAEVKKPGASVKVSCKASGYTFTSYYMHWVRQAPGQGLEWMGNIYPGSGSSNYAQKFQGRVTMTRDTSTSTVYMELSSLRSEDTAVYYCTRSSYHGNFDTMDNWGQGTTVTVSSGGSEGKSSGSGSESKSTGGSEIVLTQSPATLSLSPGERATLSCRASSSIRYMNWYQQKPGQAPRRLIYDTSNRATGIPARFSGSGSGTDFTLTISSLEPEDFAVYYCHQRSSYPWTFGGGTKVEIK | 2200 nM | 280 nM |
| TFR.15.WH8.1.24H 2+2 anti-TfR bispecific antibody (bispecific antibody, part only; not given: isotype IgG backbone and linker, not shown: another chain or arm of the molecule; a dimerising Fc or GST; large carriers; small tags and cut ends) scFv: QVQLVQSGAEVKKPGASVKVSCKASGYTFTSYYMHWVRQAPGQGLEWMGNIYPGSGSSNYAQKFQGRVTMTRDTSTSTVYMELSSLRSEDTAVYYCTRSHYYGNFDTMDNWGQGTTVTVSSGGSEGKSSGSGSESKSTGGSEIVLTQSPATLSLSPGERATLSCRASSSIRYMNWYQQKPGQAPRRLIYDTSNRATGIPARFSGSGSGTDFTLTISSLEPEDFAVYYCHQRSSYPWTFGGGTKVEIK | 2.6 nM | 5.6 nM |

Now from value to binder:

| Kd [1] | Kd [2] | Binder |
| --- | --- | --- |
| 60 nM | 190 nM | TFR.15.WH8.1.42A.LH 2+2 anti-TfR bispecific antibody (bispecific antibody, part only; not given: isotype IgG backbone and linker, not shown: another chain or arm of the molecule; a dimerising Fc or GST; large carriers; small tags and cut ends) scFv: EIVLTQSPATLSLSPGERATLSCRASSSIRAMNWYQQKPGQAPRRLIYDTSNRATGIPARFSGSGSGTDFTLTISSLEPEDFAVYYCHQRSSYPWTFGGGTKVEIKGGSEGKSSGSGSESKSTGGSQVQLVQSGAEVKKPGASVKVSCKASGYTFTSYYMHWVRQAPGQGLEWMGNIYPGSGSSNYAQKFQGRVTMTRDTSTSTVYMELSSLRSEDTAVYYCTRSSYYGNFDTMDNWGQGTTVTVSS |
| 100 nM | 150 nM | TFR.15.WH8.1.42A.L1 2+2 anti-TfR bispecific antibody (bispecific antibody, part only; not given: isotype IgG backbone and linker, not shown: another chain or arm of the molecule; a dimerising Fc or GST; large carriers; small tags and cut ends) scFv: QVQLVQSGAEVKKPGASVKVSCKASGYTFTSYYMHWVRQAPGQGLEWMGNIYPGSGSSNYAQKFQGRVTMTRDTSTSTVYMELSSLRSEDTAVYYCTRSSYYGNFDTMDNWGQGTTVTVSSSPNSASHSGSAPQTSSAPGSQEIVLTQSPATLSLSPGERATLSCRASSSIRAMNWYQQKPGQAPRRLIYDTSNRATGIPARFSGSGSGTDFTLTISSLEPEDFAVYYCHQRSSYPWTFGGGTKVEIK |
| 40 nM | 62 nM | TFR.15.WH8.1.42Q 2+2 anti-TfR bispecific antibody (bispecific antibody, part only; not given: isotype IgG backbone and linker, not shown: another chain or arm of the molecule; a dimerising Fc or GST; large carriers; small tags and cut ends) scFv: QVQLVQSGAEVKKPGASVKVSCKASGYTFTSYYMHWVRQAPGQGLEWMGNIYPGSGSSNYAQKFQGRVTMTRDTSTSTVYMELSSLRSEDTAVYYCTRSSYYGNFDTMDNWGQGTTVTVSSGGSEGKSSGSGSESKSTGGSEIVLTQSPATLSLSPGERATLSCRASSSIRQMNWYQQKPGQAPRRLIYDTSNRATGIPARFSGSGSGTDFTLTISSLEPEDFAVYYCHQRSSYPWTFGGGTKVEIK |
| 690 nM | 510 nM | TFR.15.WH8.1.42S 2+2 anti-TfR bispecific antibody (bispecific antibody, part only; not given: isotype IgG backbone and linker, not shown: another chain or arm of the molecule; a dimerising Fc or GST; large carriers; small tags and cut ends) scFv: QVQLVQSGAEVKKPGASVKVSCKASGYTFTSYYMHWVRQAPGQGLEWMGNIYPGSGSSNYAQKFQGRVTMTRDTSTSTVYMELSSLRSEDTAVYYCTRSSYYGNFDTMDNWGQGTTVTVSSGGSEGKSSGSGSESKSTGGSEIVLTQSPATLSLSPGERATLSCRASSSIRSMNWYQQKPGQAPRRLIYDTSNRATGIPARFSGSGSGTDFTLTISSLEPEDFAVYYCHQRSSYPWTFGGGTKVEIK |
